“And” between values parts separate entries of the source, which are not always exact repeats. Identical values can stand only once.

For assay [1], the target named is UCM22. The assay is described as follows: cell-based or functional assay.
The target of assay [2] is UCM23. The assay is described as follows: cell-based or functional assay.

B1: MMP-7 (enzyme, UniProt P09237 95-267, looked up)
chain: YSLFPNSPKWTSKVVTYRIVSYTRDLPHITVDRLVSKALNMWGKEIPLHFRKVVWGTADIMIGFARGAHGDSYPFDGPGNTLAHAFAPGTGLGGDAHFDEDERWTDGSSLGINFLYAATHELGHSLGMGHSSDPNAVMYPTYGNGDPQNFKLSQDDIKGIQKLYGKRSNSRKK
Regarding B1, the Est. kcat/KM (cleavage efficiency) in assay [1] is 1800 M^-1S^-1 and 2100 M^-1S^-1; in assay [2] it was 2000 M^-1S^-1 and 2100 M^-1S^-1.
